Target: T1, streptokinase, P00779
T1 chain: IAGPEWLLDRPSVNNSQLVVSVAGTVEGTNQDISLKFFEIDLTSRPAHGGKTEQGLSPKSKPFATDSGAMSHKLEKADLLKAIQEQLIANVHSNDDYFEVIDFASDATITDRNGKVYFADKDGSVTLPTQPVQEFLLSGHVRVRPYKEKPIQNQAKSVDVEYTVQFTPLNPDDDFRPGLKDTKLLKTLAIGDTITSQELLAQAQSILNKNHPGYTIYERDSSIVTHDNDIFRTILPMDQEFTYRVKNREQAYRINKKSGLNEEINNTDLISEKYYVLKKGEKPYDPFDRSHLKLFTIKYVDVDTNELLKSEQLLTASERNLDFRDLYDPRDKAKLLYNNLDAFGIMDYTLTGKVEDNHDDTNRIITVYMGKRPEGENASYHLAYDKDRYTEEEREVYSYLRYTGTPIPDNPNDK

Protein | activation of microplasminogen by streptokinase (S2251 cleavage, A405)
loop 5 chimeric microplasminogen (protein) APSFDCGKPQVEPKKCPGRVVGGCVAHPHSWPWQVSLRTRFGMHFCGGTLISPEWVLTAAHCLEDAADGKVKVILGAHQEVNLEPHVQEIEVSRLFLEPTRKDIALLKLSSPAVITDKVIPACLPSPNYVVADRTECFITGWGETQGTFGAGLLKEAQLPVIENKVCNRYEFLNGRVQSTELCAGHLAGGTDSCQGDSGGPLVCFEKDKYILQGVTSWGLGCARPNKPGVYVRVSRFVTWIEGVMRNN | all three loop mutants were not efficiently activated by the bacterial plasminogen activator streptokinase
loop 7 chimeric microplasminogen (protein) APSFDCGKPQVEPKKCPGRVVGGCVAHPHSWPWQVSLRTRFGMHFCGGTLISPEWVLTAAHCLEKSPRPSSYKVILGAHQEVNLEPHVQEIEVSRLFLHPDSQPDTIDHDIALLKLSSPAVITDKVIPACLPSPNYVVADRTECFITGWGETQGTFGAGLLKEAQLPVIENKVCNRYEFLNGRVQSTELCAGHLAGGTDSCQGDSGGPLVCFEKDKYILQGVTSWGLGCARPNKPGVYVRVSRFVTWIEGVMRNN | all three loop mutants were not efficiently activated by the bacterial plasminogen activator streptokinase
loop 3 chimeric microplasminogen (protein) APSFDCGKPQVEPKKCPGRVVGGCVAHPHSWPWQVSLRLNGAHFCGGTLISPEWVLTAAHCLEKSPRPSSYKVILGAHQEVNLEPHVQEIEVSRLFLEPTRKDIALLKLSSPAVITDKVIPACLPSPNYVVADRTECFITGWGETQGTFGAGLLKEAQLPVIENKVCNRYEFLNGRVQSTELCAGHLAGGTDSCQGDSGGPLVCFEKDKYILQGVTSWGLGCARPNKPGVYVRVSRFVTWIEGVMRNN | all three loop mutants were not efficiently activated by the bacterial plasminogen activator streptokinase
